This note sets out measurements from patent US20230212549A1, “COMPOUNDS COMPRISING A […] LIGAND AND USE THEREOF” (priority 2021, published 2023).

Assay [1] deals with T1, Potassium Channel hERG (human) (human), Q12809.
T1 chain: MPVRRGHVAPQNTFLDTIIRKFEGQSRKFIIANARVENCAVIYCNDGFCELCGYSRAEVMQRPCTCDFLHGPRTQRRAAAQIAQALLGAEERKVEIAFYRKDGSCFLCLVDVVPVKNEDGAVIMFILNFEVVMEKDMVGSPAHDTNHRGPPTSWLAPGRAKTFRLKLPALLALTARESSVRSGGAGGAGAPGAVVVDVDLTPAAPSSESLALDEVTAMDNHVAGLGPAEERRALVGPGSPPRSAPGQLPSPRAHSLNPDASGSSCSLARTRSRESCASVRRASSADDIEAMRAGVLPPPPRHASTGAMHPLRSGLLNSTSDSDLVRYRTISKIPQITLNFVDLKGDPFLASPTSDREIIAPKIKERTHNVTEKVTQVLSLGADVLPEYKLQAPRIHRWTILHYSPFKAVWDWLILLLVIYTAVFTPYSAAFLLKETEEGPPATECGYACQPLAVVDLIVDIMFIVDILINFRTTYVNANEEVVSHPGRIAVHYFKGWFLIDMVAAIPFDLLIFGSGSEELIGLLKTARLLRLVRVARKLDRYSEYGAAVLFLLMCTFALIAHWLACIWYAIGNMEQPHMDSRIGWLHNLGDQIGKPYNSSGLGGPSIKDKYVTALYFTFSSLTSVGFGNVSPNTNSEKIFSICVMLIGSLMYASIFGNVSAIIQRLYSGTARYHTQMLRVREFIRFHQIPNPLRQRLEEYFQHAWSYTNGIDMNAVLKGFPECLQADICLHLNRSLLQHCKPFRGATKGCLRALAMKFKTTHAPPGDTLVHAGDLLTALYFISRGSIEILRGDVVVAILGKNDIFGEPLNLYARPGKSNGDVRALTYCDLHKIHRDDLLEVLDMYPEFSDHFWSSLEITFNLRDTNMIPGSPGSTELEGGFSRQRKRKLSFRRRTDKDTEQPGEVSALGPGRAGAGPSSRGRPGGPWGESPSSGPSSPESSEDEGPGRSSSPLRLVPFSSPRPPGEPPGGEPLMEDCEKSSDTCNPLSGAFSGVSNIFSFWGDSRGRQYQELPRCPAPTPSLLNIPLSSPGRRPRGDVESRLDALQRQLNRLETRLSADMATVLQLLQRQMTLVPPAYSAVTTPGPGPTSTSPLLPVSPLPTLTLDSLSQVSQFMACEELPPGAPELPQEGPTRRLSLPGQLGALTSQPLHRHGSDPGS
The assay is described as follows: radioligand displacement ([3H] Dofetilide), 10 µM. The conditions noted are these: remark: other sources report otherwise. For orientation: Displacement assays read how much labelled ligand stays bound in the presence of the test substance.

The next assay concerns the target KV channel. The assay is described as follows: radioligand displacement (antagonist radioligand), 10 µM.
The target in the next assay is T2, M1 (h) (human), P11229.
T2 chain: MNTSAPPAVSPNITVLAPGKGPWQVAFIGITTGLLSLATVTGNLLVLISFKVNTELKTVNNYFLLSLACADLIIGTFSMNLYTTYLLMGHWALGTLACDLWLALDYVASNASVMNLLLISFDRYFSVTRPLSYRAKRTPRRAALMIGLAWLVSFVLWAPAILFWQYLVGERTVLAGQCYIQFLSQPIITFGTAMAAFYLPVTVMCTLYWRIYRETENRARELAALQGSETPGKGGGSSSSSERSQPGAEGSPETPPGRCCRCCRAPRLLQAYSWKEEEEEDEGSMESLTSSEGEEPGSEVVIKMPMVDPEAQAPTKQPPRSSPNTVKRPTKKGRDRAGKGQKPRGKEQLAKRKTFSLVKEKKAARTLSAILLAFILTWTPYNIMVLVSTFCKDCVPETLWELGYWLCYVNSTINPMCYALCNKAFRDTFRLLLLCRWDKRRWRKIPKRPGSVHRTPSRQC
The assay is described as above. The conditions noted are these: remark: other sources report otherwise.

Another assay deals with T3, M2 (h) (human), P08172.
T3 chain: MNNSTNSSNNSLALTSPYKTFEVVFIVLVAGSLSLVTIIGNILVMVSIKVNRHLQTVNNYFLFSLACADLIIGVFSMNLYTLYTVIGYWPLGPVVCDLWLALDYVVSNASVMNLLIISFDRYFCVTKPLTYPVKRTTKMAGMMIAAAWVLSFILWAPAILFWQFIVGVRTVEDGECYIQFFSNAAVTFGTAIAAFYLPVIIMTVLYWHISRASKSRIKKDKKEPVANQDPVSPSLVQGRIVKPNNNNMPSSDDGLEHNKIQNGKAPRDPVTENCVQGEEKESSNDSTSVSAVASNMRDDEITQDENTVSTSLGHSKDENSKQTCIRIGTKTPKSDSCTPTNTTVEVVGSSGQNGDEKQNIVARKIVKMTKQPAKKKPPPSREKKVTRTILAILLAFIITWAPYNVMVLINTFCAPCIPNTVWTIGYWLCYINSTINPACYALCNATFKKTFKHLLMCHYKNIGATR
Described as above. The conditions noted are these: remark: other sources report otherwise.

The target of a further assay is M3 (h) (human), P20309. The description is as above. The conditions noted are these: remark: other sources report otherwise.
For assay [2], the target named is T4, alpha 1A (h) (human), P35348.
T4 chain: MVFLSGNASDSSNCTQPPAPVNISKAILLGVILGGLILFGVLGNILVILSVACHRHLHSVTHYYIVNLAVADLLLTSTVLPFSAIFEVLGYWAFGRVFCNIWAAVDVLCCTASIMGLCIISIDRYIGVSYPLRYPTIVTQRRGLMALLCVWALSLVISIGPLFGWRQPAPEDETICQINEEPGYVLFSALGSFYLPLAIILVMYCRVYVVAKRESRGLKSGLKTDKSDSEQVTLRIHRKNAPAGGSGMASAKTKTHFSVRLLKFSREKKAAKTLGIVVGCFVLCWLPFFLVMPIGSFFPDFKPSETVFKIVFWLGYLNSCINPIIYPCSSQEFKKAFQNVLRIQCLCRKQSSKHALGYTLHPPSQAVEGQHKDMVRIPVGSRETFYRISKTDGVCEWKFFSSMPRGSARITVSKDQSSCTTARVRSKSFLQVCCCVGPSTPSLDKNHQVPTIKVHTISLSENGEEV
The assay is described as above. The conditions noted are these: remark: other sources report otherwise.

Assay [3] has as its target norepinephrine transporter (h) (human), P23975. Described as above. The conditions noted are these: remark: other sources report otherwise.

Bridge positions count the residues as written; N and C are the ends.

Chain of M3 (h) (human), P20309 (P20309 whole entry): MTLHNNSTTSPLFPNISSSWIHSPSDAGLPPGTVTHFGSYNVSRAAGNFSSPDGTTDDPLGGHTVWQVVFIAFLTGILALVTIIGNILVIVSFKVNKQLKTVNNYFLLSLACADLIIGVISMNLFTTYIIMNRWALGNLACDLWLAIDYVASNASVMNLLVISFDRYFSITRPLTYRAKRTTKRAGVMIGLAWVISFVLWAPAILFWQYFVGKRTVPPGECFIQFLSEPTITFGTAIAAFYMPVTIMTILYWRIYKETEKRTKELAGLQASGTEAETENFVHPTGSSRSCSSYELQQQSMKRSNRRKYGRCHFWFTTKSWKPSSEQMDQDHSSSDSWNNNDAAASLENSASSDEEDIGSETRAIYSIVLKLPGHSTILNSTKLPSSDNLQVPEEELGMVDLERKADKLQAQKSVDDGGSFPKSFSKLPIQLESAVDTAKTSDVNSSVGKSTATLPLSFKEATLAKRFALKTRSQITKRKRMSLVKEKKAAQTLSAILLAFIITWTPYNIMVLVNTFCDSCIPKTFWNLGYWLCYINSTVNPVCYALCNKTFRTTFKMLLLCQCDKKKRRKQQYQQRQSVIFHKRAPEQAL
Chain of norepinephrine transporter (h) (human), P23975 (P23975 whole entry): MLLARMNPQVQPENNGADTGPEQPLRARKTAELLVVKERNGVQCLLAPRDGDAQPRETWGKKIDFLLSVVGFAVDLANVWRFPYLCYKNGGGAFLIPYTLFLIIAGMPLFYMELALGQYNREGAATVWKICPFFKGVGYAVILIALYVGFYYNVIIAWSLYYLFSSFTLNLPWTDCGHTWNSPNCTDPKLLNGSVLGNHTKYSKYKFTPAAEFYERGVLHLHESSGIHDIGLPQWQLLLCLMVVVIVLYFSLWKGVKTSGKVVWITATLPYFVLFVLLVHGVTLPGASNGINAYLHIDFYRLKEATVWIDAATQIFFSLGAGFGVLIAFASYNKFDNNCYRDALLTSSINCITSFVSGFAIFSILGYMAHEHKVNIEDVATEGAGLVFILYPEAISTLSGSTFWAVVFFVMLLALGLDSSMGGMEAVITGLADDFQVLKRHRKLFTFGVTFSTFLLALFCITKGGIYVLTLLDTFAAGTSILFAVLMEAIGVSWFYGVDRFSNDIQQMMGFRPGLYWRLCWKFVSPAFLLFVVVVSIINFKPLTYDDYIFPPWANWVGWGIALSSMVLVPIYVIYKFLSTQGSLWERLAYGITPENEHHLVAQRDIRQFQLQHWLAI

B1: Hex-[Cys(tMeBn(DOTA-AET))-Pro-Pro-Thr-Gln-Phe-Cys]-OH (peptide)
peptide: Hex-CPPTQFC-OH
modifications: bridge 1-7; not fully specified (bridges); printed as Hex-[Cys(tMeBn(DOTA-AET))-Pro-Pro-Thr-Gln-Phe-Cys]-OH
For the molecule B1, the % Inhibition of Specific Binding was 6% in assay [1]; 4% in the assay with KV channel; 8% with M1 (h) (human), P11229; 7% with M2 (h) (human), P08172; 1% in the assay with M3 (h) (human), P20309; -12% in assay [2]. For the same molecule, the % Inhibition of Specific Binding in assay [3] is -5%.

B2: Hex-[Cys(tMeBn(DOTA-PP))-Pro-Pro-Thr-Gln-Phe-Cys]-Asp-NH2 (peptide)
peptide: Hex-CPPTQFCD-NH2
modifications: bridge 1-7; not fully specified (bridges); printed as Hex-[Cys(tMeBn(DOTA-PP))-Pro-Pro-Thr-Gln-Phe-Cys]-Asp-NH2
Consider B2, for which the % Inhibition of Specific Binding in assay [1] is 2%; with KV channel, -5%; with M1 (h) (human), P11229, 6%; in the assay with M2 (h) (human), P08172, -4%; with M3 (h) (human), P20309, 10%; in assay [2] it was 2%. Besides, the % Inhibition of Specific Binding in assay [3] was -8%.
